The chains are these.
B1: (Y-S1-X)p-Fab^2 with Y Gd/DOTA, S1 -NH-CH2-(1,3-Ph)-C(═O)-, X -Gly-Lys*-Z2(#N)- (Fab, V domains shown)
VH: EVQLVESGGGLVQPGGSLRLSCAASGFNIRDTYMHWVRQAPGKGLEWVARIDPANGNSRYVPKFQGRFTISADTSRNTAYLQMNSLRAEDTAVYYCAPFGYYVSDYAMAYWGQGTLVTVSS
VL: DIQLTQSPSSLSASVGDRVTITCRAGESVDIFGVGFLHWYQQKPGKAPKLLIYRASNLESGIPSRFSGSGSRTDFTLTISSLQPEDFATYYCQQTNEDPYTFGQGTKVEIKR
modifications: labeling may sit on this chain; sites not stated; labeling portion (MW 958) on amino groups of the Fab, sites and chain not stated; 1-3 per Fab by MS
notes: also called Ex-No 9; conjugate 9
B2: (Y-S1-X)p-Fab^2 with Y Gd/DOTA, S1 - (bond), X -Met-Ile-NH-(CH2)2-Z1(#S)- (Fab, V domains shown)
VH: EVQLVESGGGLVQPGGSLRLSCAASGFNIRDTYMHWVRQAPGKGLEWVARIDPANGNSRYVPKFQGRFTISADTSRNTAYLQMNSLRAEDTAVYYCAPFGYYVSDYAMAYWGQGTLVTVSS
VL: DIQLTQSPSSLSASVGDRVTITCRAGESVDIFGVGFLHWYQQKPGKAPKLLIYRASNLESGIPSRFSGSGSRTDFTLTISSLQPEDFATYYCQQTNEDPYTFGQGTKVEIKR
modifications: labeling may sit on this chain; sites not stated; labeling portion (MW 1027) on amino groups of the Fab, sites and chain not stated; 1-2 per Fab by MS
notes: also called Ex-No 8; conjugate 8
B3: [Gd/DOTA-NH-CH2-(1,3-Ph)-C(═O)-Asp-Gly-Lys*-Z2(#N)]p-Fab^2 (Fab, V domains shown)
VH: EVQLVESGGGLVQPGGSLRLSCAASGFNIRDTYMHWVRQAPGKGLEWVARIDPANGNSRYVPKFQGRFTISADTSRNTAYLQMNSLRAEDTAVYYCAPFGYYVSDYAMAYWGQGTLVTVSS
VL: DIQLTQSPSSLSASVGDRVTITCRAGESVDIFGVGFLHWYQQKPGKAPKLLIYRASNLESGIPSRFSGSGSRTDFTLTISSLQPEDFATYYCQQTNEDPYTFGQGTKVEIKR
modifications: labeling may sit on this chain; sites not stated; labeling portion (MW 1073) on amino groups of the Fab, sites and chain not stated; 1-3 per Fab by MS
notes: also called Ex-No 11; Conjugate No. 11
B4: [Gd/DOTA-NH-CH2-(1,3-Ph)-C(═O)-Met-Gly-Lys*-Z2(#N)]p-Fab^2 (Fab, V domains shown)
VH: EVQLVESGGGLVQPGGSLRLSCAASGFNIRDTYMHWVRQAPGKGLEWVARIDPANGNSRYVPKFQGRFTISADTSRNTAYLQMNSLRAEDTAVYYCAPFGYYVSDYAMAYWGQGTLVTVSS
VL: DIQLTQSPSSLSASVGDRVTITCRAGESVDIFGVGFLHWYQQKPGKAPKLLIYRASNLESGIPSRFSGSGSRTDFTLTISSLQPEDFATYYCQQTNEDPYTFGQGTKVEIKR
modifications: labeling may sit on this chain; sites not stated; labeling portion (MW 1089) on amino groups of the Fab, sites and chain not stated; 1-3 per Fab by MS
notes: also called Ex-No 13; Conjugate No. 13
B5: (Y-S1-X)p-Fab^2 with Y Gd/DOTA, S1 - (bond), X -Gly-Tyr-Lys*-Z2(#N)- (Fab, V domains shown)
VH: EVQLVESGGGLVQPGGSLRLSCAASGFNIRDTYMHWVRQAPGKGLEWVARIDPANGNSRYVPKFQGRFTISADTSRNTAYLQMNSLRAEDTAVYYCAPFGYYVSDYAMAYWGQGTLVTVSS
VL: DIQLTQSPSSLSASVGDRVTITCRAGESVDIFGVGFLHWYQQKPGKAPKLLIYRASNLESGIPSRFSGSGSRTDFTLTISSLQPEDFATYYCQQTNEDPYTFGQGTKVEIKR
modifications: labeling may sit on this chain; sites not stated; labeling portion (MW 988) on amino groups of the Fab, sites and chain not stated; 1-4 per Fab by MS
notes: also called Ex-No 19; conjugate 19
B6: (Y-S1-X)p-Fab^2 with Y Gd/DOTA, S1 -NH-CH2-(1,3-Ph)-C(═O)-, X -Gly-Tyr*-CH2-C(═O)-NH-(CH2)2-Z1(#N)- (Fab, V domains shown)
VH: EVQLVESGGGLVQPGGSLRLSCAASGFNIRDTYMHWVRQAPGKGLEWVARIDPANGNSRYVPKFQGRFTISADTSRNTAYLQMNSLRAEDTAVYYCAPFGYYVSDYAMAYWGQGTLVTVSS
VL: DIQLTQSPSSLSASVGDRVTITCRAGESVDIFGVGFLHWYQQKPGKAPKLLIYRASNLESGIPSRFSGSGSRTDFTLTISSLQPEDFATYYCQQTNEDPYTFGQGTKVEIKR
modifications: labeling may sit on this chain; sites not stated; labeling portion (MW 1093) on amino groups of the Fab, sites and chain not stated; 1-3 per Fab by MS
notes: also called Ex-No 14; conjugate 14
B7: (Y-S1-X)p-Fab^2 with Y Gd/DOTA, S1 - (bond), X -Gly-Tyr*-CH2-C(═O)-NH-(CH2)2-Z1(#S)- (Fab, V domains shown)
VH: EVQLVESGGGLVQPGGSLRLSCAASGFNIRDTYMHWVRQAPGKGLEWVARIDPANGNSRYVPKFQGRFTISADTSRNTAYLQMNSLRAEDTAVYYCAPFGYYVSDYAMAYWGQGTLVTVSS
VL: DIQLTQSPSSLSASVGDRVTITCRAGESVDIFGVGFLHWYQQKPGKAPKLLIYRASNLESGIPSRFSGSGSRTDFTLTISSLQPEDFATYYCQQTNEDPYTFGQGTKVEIKR
modifications: labeling may sit on this chain; sites not stated; labeling portion (MW 1061) on amino groups of the Fab, sites and chain not stated; 1-3 per Fab by MS
notes: also called Ex-No 7; conjugate 7
B8: (Y-S1-X)p-Fab^2 with Y Gd/DOTA, S1 - (bond), X -Gly-Lys*-Z2(#N)- (Fab, V domains shown)
VH: EVQLVESGGGLVQPGGSLRLSCAASGFNIRDTYMHWVRQAPGKGLEWVARIDPANGNSRYVPKFQGRFTISADTSRNTAYLQMNSLRAEDTAVYYCAPFGYYVSDYAMAYWGQGTLVTVSS
VL: DIQLTQSPSSLSASVGDRVTITCRAGESVDIFGVGFLHWYQQKPGKAPKLLIYRASNLESGIPSRFSGSGSRTDFTLTISSLQPEDFATYYCQQTNEDPYTFGQGTKVEIKR
modifications: labeling may sit on this chain; sites not stated; labeling portion (MW 825) on amino groups of the Fab, sites and chain not stated; 1-3 per Fab by MS
notes: also called Ex-No 20; conjugate 20

By EC50 is commonly meant the midpoint of the concentration-response curve.

The target in the test is T1, CEACAM5 (R&D Systems, 4128-CM-050) (human, UniProt P06731 35-685).
T1 construct: Immobilised on the ELISA plate; also called human CEACAM5
T1 sequence (looked up): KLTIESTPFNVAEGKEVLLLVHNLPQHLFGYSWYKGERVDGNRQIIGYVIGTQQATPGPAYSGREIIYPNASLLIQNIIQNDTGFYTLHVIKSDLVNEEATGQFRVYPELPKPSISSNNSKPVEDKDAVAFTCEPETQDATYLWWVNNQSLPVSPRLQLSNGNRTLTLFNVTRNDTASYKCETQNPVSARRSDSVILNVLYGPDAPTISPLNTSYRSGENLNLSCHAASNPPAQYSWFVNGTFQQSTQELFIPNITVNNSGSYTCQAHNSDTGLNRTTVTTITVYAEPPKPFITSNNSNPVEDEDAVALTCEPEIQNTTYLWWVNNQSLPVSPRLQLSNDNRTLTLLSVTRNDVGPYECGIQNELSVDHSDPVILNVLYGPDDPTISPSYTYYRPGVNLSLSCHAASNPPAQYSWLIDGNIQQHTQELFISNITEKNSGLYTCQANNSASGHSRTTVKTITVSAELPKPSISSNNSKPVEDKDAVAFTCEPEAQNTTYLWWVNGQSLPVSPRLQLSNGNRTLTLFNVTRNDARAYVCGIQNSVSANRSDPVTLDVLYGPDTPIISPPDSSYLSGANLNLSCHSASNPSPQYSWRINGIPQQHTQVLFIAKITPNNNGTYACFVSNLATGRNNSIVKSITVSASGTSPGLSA
Put plainly: ELISA on immobilised CEACAM5, 4-parameter fit, duplicate. Here is the method:
Each anti-human CEACAM5 antibody Fab fragment conjugate prepared in Example 2 was subjected to ELISA to evaluate the binding activity thereof to CEACAM5. In the present test, a phosphate buffer (Nacalai Tesque Inc., 0.1 mol/L-Phosphate Buffer Solution (pH 7.2)) prepared to 10 mM by diluting 10-fold with distilled water was used as a solvent for an antigen immobilization liquid, and 20×PBS/Tween 20 Buffer (Thermo Fisher Scientific Inc., 28352) diluted 20-fold with distilled water was used as a wash liquid. In addition, for bovine serum albumin (BSA) used in the present test, 30% Bovine Serum Albumin solution (Sigma-Aldrich, Inc., A9576-50ML) was added in an appropriate proportion for use. CEACAM5 (R&D Systems, 4128-CM-050) was diluted with a 10 mM phosphate buffer (pH 7.2) to 0.1 μg/mL, and added to a Nunc MaxiSorp White 384 plate (Nunc, 4603272) at 30 μL per well, and the plate was incubated overnight at 4° C. for immobilization. The CEACAM5 immobilization liquid was removed by reverse centrifugation, and then blocking was carried out by adding a PBS/Tween 20 buffer containing 5.0% BSA. Thereafter, the blocking solution was removed by reverse centrifugation, a solution of each CEACAM5 antibody Fab² fragment conjugate described above or a Fab² fragment having no labeling portion (PB009-01) as a control at about 10000 ng/mL was diluted in 14 steps by 3-fold dilution using a PBS/Tween 20 buffer containing 1.0% BSA, and 30 μL was added per well and incubated at room temperature for 60 minutes. The plate was washed 3 times with a PBS/Tween 20 buffer, and Horseradish Peroxidase (HRP)-labeled goat anti-human IgG (H+L chain) antibody (MBL Life Sciences, 206) diluted 1000-fold using a PBS/Tween 20 buffer containing 5.0% BSA was added at 30 μL per well and incubated at room temperature for 30 minutes. The plate was washed 3 times with a PBS/Tween 20 buffer, and ECL Prime Western Blotting DETECTION Reagent (GE Healthcare, RPN2232) as a substrate was added at 30 μL per well. The substrate was incubated at room temperature for 15 minutes, and then a signal value thereof was measured using an Envision counter (PerkinElmer, Inc.).
The test for each antibody was carried out in duplicate, and an EC₅₀ value was calculated using a 4-parameter logistic curve model.
In general terms: In an ELISA, binding on a coated surface is turned into a signal by an enzyme label.
Molecule B1 returned an EC50 of 0.1 nM. The molecule B2 showed an EC50 of 0.11 nM. Under B3 stands 0.14 nM. With B4 the figure was 0.14 nM.

Turning to B5, it took 0.26 nM to reach a half-maximal effect (EC50). Take B6: it took 0.13 nM to reach a half-maximal effect (EC50).

Regarding B7, the midpoint of the response, the EC50, lay at 0.17 nM. In turn, B8 registered a concentration for a half-maximal effect (EC50) of 0.22 nM.

The values above are taken from patent publication US20220096653A1, “CONJUGATE COMPRISING LIGAND AND CEACAM5 ANTIBODY FAB FRAGMENT” (ASTELLAS PHARMA INC., priority 2019, published 2022).
